These results are taken from US20250320312A1 (OXITOPE PHARMA B V, published 2025).

Holding throughout (assay): scFv ELISA
For one experiment, the target named is BSA (UniProt P02769).
Experiment [1] addresses Peptide 1: Biotin-…-[Tyr(PC)]-acid.
Experiment [2] addresses Peptide 5: Biotin-…-[Tyr(PC)]-acid.
Experiment [3] has as its target T1, Peptide 4: Biotin-AGGGGSGGGGSGGGGSAAA-Tyr-acid (N-terminal biotin; C-terminal acid).
T1 construct: Control peptide without PC
T1 peptide: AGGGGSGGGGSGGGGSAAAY
The method in brief: (§1)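 Bound scFv was read as OD450 after HRP–anti-V5 detection, TMB development and HCl stop. PPE with BSA was incubated 1 h at RT on BSA-blocked wells coated overnight at 4° C. with peptide, or on streptavidin wells loaded 1 h with biotinylated PC-peptides at 1 μg/mL.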

Experiment [4] has as its target T2, Peptide 8: Biotin-AEAAAKEAAAKEAAAKEAAAKAAA-Tyr-acid (N-terminal biotin; C-terminal acid).
T2 construct: Control peptide without PC
T2 peptide: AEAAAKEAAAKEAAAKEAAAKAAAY
The method in brief:
as §1

BSA, sequence (P02769 25-607 limits assumed): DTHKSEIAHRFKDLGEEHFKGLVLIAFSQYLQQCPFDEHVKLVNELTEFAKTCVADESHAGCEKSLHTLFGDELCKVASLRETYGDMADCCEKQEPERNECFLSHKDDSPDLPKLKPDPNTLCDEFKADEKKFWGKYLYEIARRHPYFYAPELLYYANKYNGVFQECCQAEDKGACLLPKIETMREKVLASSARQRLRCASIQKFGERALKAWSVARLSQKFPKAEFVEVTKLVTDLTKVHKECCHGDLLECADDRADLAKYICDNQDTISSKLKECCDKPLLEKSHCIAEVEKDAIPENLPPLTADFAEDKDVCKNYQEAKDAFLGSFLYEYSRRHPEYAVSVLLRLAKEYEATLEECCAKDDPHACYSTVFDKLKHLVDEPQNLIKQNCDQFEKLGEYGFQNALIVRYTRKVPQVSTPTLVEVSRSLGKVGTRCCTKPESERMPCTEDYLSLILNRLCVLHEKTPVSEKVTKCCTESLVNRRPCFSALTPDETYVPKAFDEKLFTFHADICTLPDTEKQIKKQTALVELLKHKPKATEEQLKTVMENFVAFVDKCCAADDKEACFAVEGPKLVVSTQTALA

B1: PcOxP_DB04_D05 (scFv, V domains shown)
VH: EVQLLESGGGLVQPGGSLRLSCAASGFTFSDYYMEWVRQAPGKGLEWVAASRNVANDYTTEYADSVKGRFTISRDNSKNTLYLQMNSLRAEDTAVYYCARDYYGSSYWYFDVWGQGTLVTVSS
VL: DIVMTQSPDSLAVSLGERATINCTASTSLYSSKHKVHYLAWYQQKPGQPPKLLIYGASNRYIGVPDRFSGSGSGTDFTLTISSLQAEDVAVYYCAQFYSYPLTFGGGTKVEIK
notes: scFv in periplasmic extract
In the case of B1, the OD450 with BSA was 0.08 OD450; in experiment [1], 0.87 OD450; in experiment [2] it was 1.27 OD450; in experiment [3], 0.05 OD450; in experiment [4], 0.06 OD450.

B2: PcOxP_DB04_D07 (scFv, V domains shown)
VH: EVQLLESGGGLVQPGGSLRLSCAASGFTFSDYYMEWVRQAPGKGLEWVAASRWKANDYTTEYADSVKGRFTISRDNSKNTLYLQMNSLRAEDTAVYYCARDYYGSSYWYFDVWGQGTLVTVSS
VL: DIVMTQSPDSLAVSLGERATINCTASESLYSSKHKVHYLAWYQQKPGQPPKLLIYGASNRYIGVPDRFSGSGSGTDFTLTISSLQAEDVAVYYCAQFYTYPLTFGGGTKVEIK
notes: scFv in periplasmic extract
For the molecule B2, the OD450 with BSA stood at 0.08 OD450; in experiment [1] it was 1.02 OD450; in experiment [2], 1.05 OD450; in experiment [3], 0.05 OD450; in experiment [4], 0.05 OD450.

B3: PcOxP_DB04_E12 (scFv, V domains shown)
VH: EVQLLESGGGLVQPGGSLRLSCAASGFTFSDFYMEWVRQAPGKGLEWVAASRNKANDYTTEYADSVKGRFTISRDNSKNTLYLQMNSLRAEDTAVYYCARDYYGSSYWYFDVWGQGTLVTVSS
VL: DIVMTQSPDSLAVSLGERATINCTASESLYSSKHKVHYLAWYQQKPGQPPKLLIYGASNRVIGVPDRFSGSGSGTDFTLTISSLQAEDVAVYYCAQFYIYPLTFGGGTKVEIK
notes: scFv in periplasmic extract
Take B3: the OD450 with BSA is 0.07 OD450; in experiment [1] it was 1.03 OD450; in experiment [2], 1.39 OD450; in experiment [3] it was 0.05 OD450; in experiment [4] it was 0.05 OD450.

B4: PcOxP_DB04_D12 (scFv, V domains shown)
VH: EVQLLESGGGLVQPGGSLRLSCAASGFTFSDQYMEWVRQAPGKGLEWVAASRNKANDWTTEYADSVKGRFTISRDNSKNTLYLQMNSLRAEDTAVYYCARDYYGSSYWYFDVWGQGTLVTVSS
VL: DIVMTQSPDSLAVSLGERATINCTASESLYSSKHKVHYLAWYQQKPGQPPKLLIYGASNRYIGVPDRFSGSGSGTDFTLTISSLQAEDVAVYYCAQFYSYPLTFGGGTKVEIK
notes: scFv in periplasmic extract
As for B4, the OD450 worked out at 0.08 OD450 with BSA; 0.64 OD450 in experiment [1]; 1.03 OD450 in experiment [2]; 0.06 OD450 in experiment [3]; 0.05 OD450 in experiment [4].

B5: PcOxP_DB04_F01 (scFv, V domains shown)
VH: EVQLLESGGGLVQPGGSLRLSCAASGFTFSPFYMEWVRQAPGKGLEWVAASRNKANDYTTEYADSVKGRFTISRDNSKNTLYLQMNSLRAEDTAVYYCARDYYGSSYWYFDVWGQGTLVTVSS
VL: DIVMTQSPDSLAVSLGERATINCTASESLYSSKHKVHYLAWYQQKPGQPPKLLIYGASNRYIGVPDRFSGSGSGTDFTLTISSLQAEDVAVYYCAQFYEYPLTFGGGTKVEIK
notes: scFv in periplasmic extract
For B5, the OD450 with BSA was 0.09 OD450; in experiment [1], 0.56 OD450; in experiment [2] it was 0.85 OD450; in experiment [3] it was 0.07 OD450; in experiment [4] it was 0.07 OD450.

B6: PcOxP_DB04_E06 (scFv, V domains shown)
VH: EVQLLESGGGLVQPGGSLRLSCAASGFTGSDFYMEWVRQAPGKGLEWVAASRNKANDYTTEYADSVKGRFTISRDNSKNTLYLQMNSLRAEDTAVYYCARDYYGSPYWYFDVWGQGTLVTVSS
VL: DIVMTQSPDSLAVSLGERATINCTASESLYSSKHKVHYLAWYQQKPGQPPKLLIYGASNRYIGVPDRFSGSGSGTDFTLTISSLQAEDVAVYYCAQFYSYPLTFGGGTKVEIK
notes: scFv in periplasmic extract
In the case of B6, the OD450 is 0.07 OD450 in the experiment with BSA; 1.04 OD450 in experiment [1]; 1.59 OD450 in experiment [2]; 0.04 OD450 in experiment [3]; 0.05 OD450 in experiment [4].

B7: PcOxP_DB04_F03 (scFv, V domains shown)
VH: EVQLLESGGGLVQPGGSLRLSCAASGFTASDFYMEWVRQAPGKGLEWVAASRWKANDYTTEYADSVKGRFTISRDNSKNTLYLQMNSLRAEDTAVYYCARDIYGSSYWYFDVWGQGTLVTVSS
VL: DIVMTQSPDSLAVSLGERATINCTASESLYSSKHKVHYLAWYQQKPGQPPKLLIYGASNRYIGVPDRFSGSGSGTDFTLTISSLQAEDVAVYYCAQFYSYPLTFGGGTKVEIK
notes: scFv in periplasmic extract
In the case of B7, the OD450 in the experiment with BSA came out at 0.1 OD450; in experiment [1], 0.58 OD450; in experiment [2], 0.87 OD450; in experiment [3], 0.06 OD450; in experiment [4], 0.05 OD450.

B8: PcOxP_DB04_D09 (scFv, V domains shown)
VH: EVQLLESGGGLVQPGGSLRLSCAASGFTDSDFYMEWVRQAPGKGLEWVAASRNKANDYTTEYADSVKGRFTISRDNSKNTLYLQMNSLRAEDTAVYYCARDYYGSSYWYFDVWGQGTLVTVSS
VL: DIVMTQSPDSLAVSLGERATINCKSSESLYSSKNKVHYLAWYQQKPGQPPKLLIYGASNRYSGVPDRFSGSGSGTDFTLTISSLQAEDVAVYYCAQFYSYPLTFGGGTKVEIK
notes: scFv in periplasmic extract
With B8, the OD450 in the experiment with BSA was found to be 0.06 OD450; in experiment [1] it was 0.41 OD450; in experiment [2], 0.83 OD450; in experiment [3], 0.05 OD450; in experiment [4], 0.08 OD450.

B9: PcOxP_DB04_E05 (scFv, V domains shown)
VH: EVQLLESGGGLVQPGGSLRLSCAASGNTFSDFYMEWVRQAPGKGLEWVAASRNKANYYTTEYADSVKGRFTISRDNSKNTLYLQMNSLRAEDTAVYYCARDYYGSSYWYFDVWGQGTLVTVSS
VL: DIVMTQSPDSLAVSLGERATINCTASESLYSSKHKVHYLAWYQQKPGQPPKLLIYGASNRYIGVPDRFSGSGSGTDFTLTISSLQAEDVAVYYCAQFYSYPLTFGGGTKVEIK
notes: scFv in periplasmic extract
B9: the OD450 with BSA stood at 0.09 OD450; in experiment [1] it was 0.67 OD450; in experiment [2], 1.03 OD450; in experiment [3], 0.06 OD450; in experiment [4] it was 0.05 OD450.

B10: PcOxP_DB04_E08 (scFv, V domains shown)
VH: EVQLLESGGGLVQPGGSLRLSCAASGFTSSDFYLEWVRQAPGKGLEWVAASRNKWNDYTTEYADSVKGRFTISRDNSKNTLYLQMNSLRAEDTAVYYCARDYYGSSYWYFDVWGQGTLVTVSS
VL: DIVMTQSPDSLAVSLGERATINCTASESLYSSKHKVHYLAWYQQKPGQPPKLLIYGVSNRYIGVPDRFSGSGSGTDFTLTISSLQAEDVAVYYCAQFYSYPLTFGGGTKVEIK
notes: scFv in periplasmic extract
Take B10: the OD450 was 0.09 OD450 in the experiment with BSA; 1.39 OD450 in experiment [1]; 2.01 OD450 in experiment [2]; 0.06 OD450 in experiment [3]; 0.05 OD450 in experiment [4].

B11: PcOxP_DB04_D10 (scFv, V domains shown)
VH: EVQLLESGGGLVQPGGSLRLSCAASGFTGSDFYMEWVRQAPGKGLEWVAASRWKANDYTTEYADSVKGRFTISRDNSKNTLYLQMNSLRAEDTAVYYCARDYYGSSYWYFDVWGQGTLVTVSS
VL: DIVMTQSPDSLAVSLGERATINCTASESLYSTKHKVHYLAWYQQKPGQPPKLLIYGASHRYIGVPDRFSGSGSGTDFTLTISSLQAEDVAVYYCAQFYQYPLTFGGGTKVEIK
notes: scFv in periplasmic extract
As for B11, the OD450 turned out to be 0.07 OD450 in the experiment with BSA; 1.14 OD450 in experiment [1]; 1.35 OD450 in experiment [2]; 0.05 OD450 in experiment [3]; 0.05 OD450 in experiment [4].
